Common to all, as to test: cell-based or functional assay
Test [1] deals with Cdes2 CXCR4 design (human).
For test [2], the target named is CLdes CXCR4 sensor (Cdes2 design combined with H113N) (human).
Test [3] has as its target Ldes CXCR4 (library-selected combination receptor variant) (human).

No end group written: not given here.

As to KPVSLSYRCPCRFFESH-NH2 (cysteine pairing not given here) [CXCL12 1-17 peptide, wild-type (17 N-terminal residues of CXCL12)], in test [1], the “potency in G-coupling (Gi BRET)” value was found to be 3.2 fold over WT and the “potency in calcium mobilization” value worked out at 3.1 fold over WT. Besides, the “Gi response (potency/sensitivity)” value in test [2] is > 9 fold over WT. In addition, in test [3], the Gi potency was ~11 fold over CXCR4 WT scaffold.

Source of the values: patent US20250210128A1 (ECOLE POLYTECHNIQUE FEDERALE DE LAUSANNE EPFL, published 2025).
